The source of these data is patent US20030223975, “Transcriptional regulation of PTP-1B” (Cold Spring Harbor Laboratory, published 2003).

Series [1] concerns the target T1, YB-1 (B-TEP, purified from Rat1 nuclear extract) (Rattus norvegicus, UniProt P62961 SEQ:1-322). The series is described as follows: pulldown; purified on -167/-132 affinity column, eluted at 0.8 M NaCl; complex B in EMSA. How it is done: To purify proteins within the TEP sequence complexes, nuclear extracts were subjected to SP-Sepharose chromatography followed by DNA-affinity chromatography (FIG. 3A). Nuclear extracts (approximately 50 mg) were obtained from Rat1 cells as described above. The extracts were dialyzed against starting buffer (0.1 M NaCl in 20 mM HEPES pH 7.9, 20 mM NaF, 1 mM Na₃VO₄, 1 mM Na₄P₂O₇, 0.125 μM okadaic acid, 1 mM EDTA, 1 mM EGTA, 1 mM DTT, 0.5 mM PMSF, 1 μg/ml leupeptin, 1 μg/ml aprotinin, 1 μg/ml pepstatin, 0.2% NP-40, 5% glycerol) and then applied to SP Sepharose (20 ml) (Pharmacia Biotech, Piscataway, N.J.) equilibrated with the starting buffer. Proteins were eluted in a stepwise manner with 0.2, 0.3, 0.4, 0.6, and 0.8 M NaCl containing nuclear extraction buffer. Each fraction (5 μl aliquots) was assayed by EMSA using ³²P-labelled probes as described above. Fractions containing Complex B (detected by the ³²P-labeled −167/−132 probe, see FIG. 2B) were dialyzed to 0.2 M NaCl containing starting buffer and then applied to a double-stranded DNA-conjugated affinity column. The sequence of the DNA used for affinity chromatography corresponded to nucleotides −167 to −132 from the transcription start site as follows:
The DNA was biotinylated according to standard methods. […]
In general terms: Mobility shift assays separate free from complexed probe on a gel.

The target in series [2] is GST-YB-1 (UniProt P67809 P67809:1-324). The series can be described thus: EMSA; 1 or 10 ng GST-YB-1; binding shown in figure. Conditions: tags: N-terminal GST fusion, expressed in E. coli BL21 (plasmid gift of K. Kohno). The source says: Complex formation of YB-1 with the PTP1B enhancer was confirmed using purified YB-1 from a different source. Expression plasmids for GST and for GST-YB-1 (gift from Dr. K. Kohno) (see Izumi et al., Nucleic Acids Res. 29:1200-07 (2001)) were each separately transfected into E. coli BL21 cells. Recombinant proteins were expressed and purified (see Frangioni and Neel, Anal. Biochem. 210:179-87 (1993)) and analyzed by SDS-PAGE as shown in FIG. 9B (left panel). The interaction between GST-tagged YB-1 and the PTP1B enhancer probe was analyzed by EMSA. Purified GST or GST-YB-1 proteins (1 or 10 ng) were combined with double-stranded DNA ³²P-labelled probe −167/−132 (see above) in the absence or presence of unlabeled double-stranded DNA probe −167/−132 or the deletion mutant probe −167/−132 (Δ−155/−144) (see above), which were tested as competitors of complex formation.

Series [3] has as its target T1, YB-1 (B-TEP, purified from Rat1 nuclear …). The series can be described thus: EMSA; 10 ng YB-1; complex supershifted by anti-YB-1; anti-GATA1/GATA2 as controls; 25 C. Conditions: label: 32P (EMSA) or biotin (pull-down). How it is done: To further examine the interaction of YB-1 with the PTP1B enhancer, an EMSA was performed using purified YB-1 (10 ng) and the double-stranded DNA ³²P-labelled −155/−132 probe (see methods described above). A YB-1/DNA probe complex was detected by incubating the complex with the anti-YB-1 antibody (see above). Included as controls were anti-GATA1 (sc266X) and anti-GATA2 (sc-9008X) antibodies (Santa Cruz Biotechnology, Inc., Santa Cruz, Calif.). Purified YB-1 was incubated without antibody or separately with each antibody for 1 hour at 4° C., followed by addition of the DNA probe for 20 minutes at 25° C.

T1 sequence (P62961 other isoform, or with tags, fused parts or gaps): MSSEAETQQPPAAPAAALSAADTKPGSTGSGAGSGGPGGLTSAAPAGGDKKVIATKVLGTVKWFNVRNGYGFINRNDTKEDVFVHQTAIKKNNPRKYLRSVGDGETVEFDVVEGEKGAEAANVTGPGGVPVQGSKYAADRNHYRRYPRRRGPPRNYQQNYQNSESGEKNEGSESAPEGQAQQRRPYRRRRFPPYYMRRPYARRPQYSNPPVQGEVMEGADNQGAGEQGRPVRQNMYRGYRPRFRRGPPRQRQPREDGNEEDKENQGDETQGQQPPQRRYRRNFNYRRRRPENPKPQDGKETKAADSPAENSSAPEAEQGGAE
GST-YB-1, sequence (P67809 whole entry, the tested form may be a part, one chain of several): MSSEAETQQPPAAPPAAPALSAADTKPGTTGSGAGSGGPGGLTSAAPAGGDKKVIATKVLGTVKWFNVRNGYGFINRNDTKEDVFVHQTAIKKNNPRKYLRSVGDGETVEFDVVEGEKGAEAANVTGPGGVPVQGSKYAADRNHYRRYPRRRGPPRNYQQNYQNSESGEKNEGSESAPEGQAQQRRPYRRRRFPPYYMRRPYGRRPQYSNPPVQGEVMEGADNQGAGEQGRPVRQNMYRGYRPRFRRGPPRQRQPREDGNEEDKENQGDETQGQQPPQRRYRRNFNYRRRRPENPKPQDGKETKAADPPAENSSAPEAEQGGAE

B1: PTP1B enhancer -167/-132 (dsDNA)
DNA 1: ACGCGCGCTATTAGATATCTCGCGGTGCTGGGGCCA
DNA 2: TGGCCCCAGCACCGCGAGATATCTAATAGCGCGCGT
For the molecule B1, the binding result in series [1] and in series [2] was “binds” throughout.

B2: PTP1B enhancer -155/-132 (dsDNA)
DNA 1: AGATATCTCGCGGTGCTGGGGCCA
DNA 2: TGGCCCCAGCACCGCGAGATATCT
Regarding B2, the binding result in series [3] is given as “binds”.
